From article PMC12494293, “Hexokinase 2 is an RNA-binding protein that regulates mRNA translation independently of glycolysis and induces melanoma cell proliferation”

Target: T1, HK2 Δ16 (UniProt P52789 17-917, del1-16)
T1 sequence: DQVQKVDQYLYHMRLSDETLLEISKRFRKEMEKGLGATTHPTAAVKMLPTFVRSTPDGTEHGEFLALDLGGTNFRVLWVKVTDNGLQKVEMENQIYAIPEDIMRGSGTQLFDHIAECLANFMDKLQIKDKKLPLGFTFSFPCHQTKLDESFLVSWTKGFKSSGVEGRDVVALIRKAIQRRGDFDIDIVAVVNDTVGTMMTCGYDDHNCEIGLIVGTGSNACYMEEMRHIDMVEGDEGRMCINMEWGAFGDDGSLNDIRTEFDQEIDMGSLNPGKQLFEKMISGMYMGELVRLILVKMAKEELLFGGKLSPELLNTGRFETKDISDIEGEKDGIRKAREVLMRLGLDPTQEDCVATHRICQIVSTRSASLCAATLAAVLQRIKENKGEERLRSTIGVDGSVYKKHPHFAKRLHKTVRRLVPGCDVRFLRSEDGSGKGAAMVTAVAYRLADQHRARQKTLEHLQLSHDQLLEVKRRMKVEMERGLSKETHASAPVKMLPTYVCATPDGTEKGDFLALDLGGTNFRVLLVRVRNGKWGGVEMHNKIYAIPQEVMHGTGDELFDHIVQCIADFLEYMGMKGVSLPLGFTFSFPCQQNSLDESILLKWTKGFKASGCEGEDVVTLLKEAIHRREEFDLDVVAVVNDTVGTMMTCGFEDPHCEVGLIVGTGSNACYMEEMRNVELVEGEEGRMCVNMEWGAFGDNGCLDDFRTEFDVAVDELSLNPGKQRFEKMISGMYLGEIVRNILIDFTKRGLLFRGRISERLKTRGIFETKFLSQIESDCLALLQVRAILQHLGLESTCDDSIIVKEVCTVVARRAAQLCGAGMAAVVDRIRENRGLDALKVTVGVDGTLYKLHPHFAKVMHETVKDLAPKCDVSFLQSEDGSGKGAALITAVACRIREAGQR
Assay: competition; 5 µM HK2 Δ16, 25 nM ATTO700 SOX10 SL; almost complete competition; 10 mM Tris-HCl pH 7.5, 1 mM EDTA, 100 mM KCl, 0.1 mM DTT, 5% glycerol, 0.01 mg/mL BSA, 0.125 mg/mL yeast tRNA, 20°C; gel at 4°C
Details: protein: recombinant; (pET28b, Ni-NTA); hairpin

AGGACGAGCCCCAGACUGGAGGAGAGGUCC (structured_RNA) [SOX10 SL (unlabeled)]: binds.
